Measurements reported in article PMC2621267, “The Influence of Catalysis on Mad2 Activation Dynamics” (PLoS Biology, 2009).
Each block holds one binder with its values, some of them ahead of it. Ends that are not written are not given here. * marks the point of attachment. Biotin = O=C1N[C@H]2[C@H](CS[C@H]2CCCCC(=O)*)N1

Experiments:
Settings in all cases: both partners purified
Full-length Mad2^F141A = molecular target: T1, Full-length Mad2^F141A (UniProt Q13257 1-205, F141A); assay: pull-down; GST-Cdc20 111-138 (1 uM) immobilised on GSH-agarose beads; 1 uM Mad2 for 24 h at room temperature, or 2 uM Mad2 as a time course; SDS-PAGE and densitometry
T1 construct: Mad2, full length, Phe141 replaced by Ala; purified as a monomer in the open (O-Mad2) conformation; Unlabelled form; source: purified as described [14], final size-exclusion chromatography on Superdex-75 in PBS

Full-length Mad2^wt = molecular target: T2, Full-length Mad2^wt (UniProt Q13257 1-205); assay: as above
T2 construct: Mad2, wild type, full length; purified as a monomer in the open (O-Mad2) conformation; Unlabelled form; also called wild-type Mad2; O-Mad2; source: purified as described [14], final size-exclusion chromatography on Superdex-75 in PBS

[1] = molecular target: T3, Alexa Fluor 488-labelled Mad2^F141A (UniProt Q13257 1-205, F141A, Alexa 488 C5 maleimide, covalent label (residue not stated)); assay: real-time confocal fluorescence in a flow chamber, signal in solution; same chamber with surface-held biotin-Cdc20 111-138; loss of Alexa-Mad2 fluorescence from solution followed; parameters of the curves laid over the data, [Cdc20T] = 0.9 uM
T3 construct: Mad2, full length, Phe141 replaced by Ala; monomeric O-Mad2 after labelling; Labelled form of m2; also called Alexa-Mad2^F141A; Alexa-488-Mad2^F141A; source: purified as described [14], labelled with Alexa 488 C5 maleimide, separated from free dye on Superdex-75

[2] = molecular target: T3, Alexa Fluor 488-labelled Mad2^F141A; assay: real-time confocal fluorescence on a surface in a flow chamber; biotin-Cdc20 111-138 (~1 uM) held on a neutravidin-coated chamber surface; Alexa-488-Mad2 injected at 1-8 uM in PBS; fluorescence on the surface followed; constants from a global fit of rate equations

T3 sequence (Q13257 whole entry F141A): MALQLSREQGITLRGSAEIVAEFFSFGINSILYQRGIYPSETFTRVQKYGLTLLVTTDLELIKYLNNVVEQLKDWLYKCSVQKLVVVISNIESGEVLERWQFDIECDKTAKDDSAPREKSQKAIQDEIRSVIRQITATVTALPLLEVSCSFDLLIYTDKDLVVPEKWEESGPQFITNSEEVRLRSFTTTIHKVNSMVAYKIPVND
T1 sequence (Q13257 whole entry F141A): as above
T2 sequence (Q13257 whole entry): as the sequence (Q13257 whole entry F141A) above, with A141F counted along it

- binding result (Full-length Mad2^F141A): binds
- binding result (Full-length Mad2^wt): binds
B1: GST-Cdc20^111-138 (domain or fragment, UniProt Q12834 111-138, looked up)
chain: EHQKAWALNLNGFDVEEAKILRLSGKPQ
notes: Immobilised on GSH-agarose beads

- Kd [1]: 240 nM
- kon [1]: 27 M⁻¹ s⁻¹
- Kd [2]: 100 nM
- koff [2]: 4.83e-06 s⁻¹
- kon [2]: 48.3 M⁻¹ s⁻¹
B2: synthetic biotin-Cdc20^111-138 (peptide, UniProt Q12834 111-138, looked up)
peptide: Biotin-EHQKAWALNLNGFDVEEAKILRLSGKPQ
notes: Cdc20, residues 111-138; Held on the neutravidin-coated surface of the flow chamber through its biotin; also called biotinylated Cdc20 peptide; biotin-Cdc20 peptide^111-138; source: synthetic peptide
